Data set [1] deals with the molecule itself. Kind of data set: AUC.
Data set [2] deals with histone H2B, in the mononucleosome (X. laevis, UniProt P02281 2-126). In words: cross-linking.

B1: Swi6 (natural protein)
chain: MKKGGVRSYRRSSTSKRSVIDDDSEPELPSMTKEAIASHKADSGSSDNEVESDHESKSSSKKLKENAKEEEGGEEEEEDEYVVEKVLKHRMARKGGGYEYLLKWEGYDDPSDNTWSSEADCSGCKQLIEAYWNEHGGRPEPSKRKRTARPKKPEAKEPSPKSRKTDEDKHDKDSNEKIEDVNEKTIKFADKSQEEFNENGPPSGQPNGHIESDNESKSPSQKESNESEDIQIAETPSNVTPKKKPSPEVPKLPDNRELTVKQVENYDSWEDLVSSIDTIERKDDGTLEIYLTWKNGAISHHPSTITNKKCPQKMLQFYESHLTFRENE
For the molecule B1, in data set [1], the “stoichiometry N” value came out at 2. Also, the binding result in data set [2] is reported as “binds”.

These data come from PMC7039410 (Nature, 2019).
